Results taken from PMC2174231 (The Journal of Cell Biology, 1999).

T1: PML wild-type fused to GAL4-DBD (UniProt P29590 1-882)
T1 sequence: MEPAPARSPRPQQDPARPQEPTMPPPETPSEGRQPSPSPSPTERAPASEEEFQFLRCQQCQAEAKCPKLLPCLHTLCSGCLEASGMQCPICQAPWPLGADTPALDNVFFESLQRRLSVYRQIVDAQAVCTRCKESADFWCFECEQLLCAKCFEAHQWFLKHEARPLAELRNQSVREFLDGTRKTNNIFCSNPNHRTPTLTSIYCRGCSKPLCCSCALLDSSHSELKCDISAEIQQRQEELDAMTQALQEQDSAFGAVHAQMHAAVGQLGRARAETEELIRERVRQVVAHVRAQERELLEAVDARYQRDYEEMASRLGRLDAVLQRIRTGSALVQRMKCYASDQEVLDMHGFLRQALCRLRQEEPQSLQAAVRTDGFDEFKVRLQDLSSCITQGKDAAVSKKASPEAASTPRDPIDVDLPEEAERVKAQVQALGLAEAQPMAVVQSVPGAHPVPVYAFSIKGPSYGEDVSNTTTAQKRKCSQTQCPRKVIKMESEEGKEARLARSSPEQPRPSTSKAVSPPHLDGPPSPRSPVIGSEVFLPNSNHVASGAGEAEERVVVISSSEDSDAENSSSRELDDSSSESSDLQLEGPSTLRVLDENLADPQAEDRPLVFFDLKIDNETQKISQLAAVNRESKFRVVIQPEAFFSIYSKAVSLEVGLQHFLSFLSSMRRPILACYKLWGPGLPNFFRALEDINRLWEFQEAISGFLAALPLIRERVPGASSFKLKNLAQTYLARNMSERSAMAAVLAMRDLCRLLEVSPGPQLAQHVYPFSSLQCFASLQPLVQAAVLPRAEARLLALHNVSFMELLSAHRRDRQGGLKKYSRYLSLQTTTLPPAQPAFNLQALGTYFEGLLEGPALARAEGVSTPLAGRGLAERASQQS


Molecular target: T1, PML wild-type fused to GAL4-DBD
Assay: two-hybrid

| Binder | fold strength of interaction (β-galactosidase) against full-length Daxx [fold] | fold weaker interaction (β-galactosidase) against Daxx 488-740 [fold weaker] |
| --- | --- | --- |
| Daxx amino acids 488-740 fused to NLS-VP16 (domain or fragment) AGKDGDKSPMSSLQISNEKNLEPGKQISRSSGEQQNKGRIVSPSLLSEEPLAPSSIDAESNGEQPEELTLEEESPVSQLFELEIEALPLDTPSSVETDISSSRKQSEEPFTTVLENGAGMVSSTSFNGGVSPHNWGDSGPPCKKSRKEKKQTGSGPLGNSYVERQRSVHEKNGKKICTLPSPPSPLASLAPVADSSTRVDSPSHGLVTSSLCIPSPARLSQTPHSQPPRPGTCKTSVATQCDPEEIIVLSDSD | ~3 | – |
| Daxx amino acids 433-740 fused to NLS-VP16 (domain or fragment) AETDDEDDEESDEEEEEEEEEEEEEATDSEEEEDLEQMQEGQEDDEEEDEEEEAAAGKDGDKSPMSSLQISNEKNLEPGKQISRSSGEQQNKGRIVSPSLLSEEPLAPSSIDAESNGEQPEELTLEEESPVSQLFELEIEALPLDTPSSVETDISSSRKQSEEPFTTVLENGAGMVSSTSFNGGVSPHNWGDSGPPCKKSRKEKKQTGSGPLGNSYVERQRSVHEKNGKKICTLPSPPSPLASLAPVADSSTRVDSPSHGLVTSSLCIPSPARLSQTPHSQPPRPGTCKTSVATQCDPEEIIVLSDSD | – | ~20 |
| Daxx amino acids 625-740 fused to NLS-VP16 (domain or fragment) SGPPCKKSRKEKKQTGSGPLGNSYVERQRSVHEKNGKKICTLPSPPSPLASLAPVADSSTRVDSPSHGLVTSSLCIPSPARLSQTPHSQPPRPGTCKTSVATQCDPEEIIVLSDSD | ~3 | – |
